Experimental findings from paper PMC8891019, “TDP-43 represses cryptic exon inclusion in the FTD–ALS gene UNC13A” are described below.

The target of data set [1] is T1, TDP-43-MBP (full-length wild-type TDP-43) (UniProt Q13148 1-414). Put plainly: EMSA; Kd,app only in figure; much lower affinity than intron probe; EMSA: 1 nM RNA, 50 mM Tris-HCl pH 7.5, 100 mM KCl, 2 mM MgCl2, 100 mM beta-mercaptoethanol, 0.1 mg/ml BSA, 30 min, room temperature; TDP-43 0-4 (printed mM in Methods, 0-8 uM in legend); 6% native PAGE, Cy5 imaging. Conditions: protein: recombinant, tags: MBP, Ni-NTA purified, label: 5' Cy3 on strand 1, 3' Cy5 on 18-mer. For orientation: In EMSA bound probe runs differently from free probe, usually more slowly.
T1 sequence (Q13148 whole entry): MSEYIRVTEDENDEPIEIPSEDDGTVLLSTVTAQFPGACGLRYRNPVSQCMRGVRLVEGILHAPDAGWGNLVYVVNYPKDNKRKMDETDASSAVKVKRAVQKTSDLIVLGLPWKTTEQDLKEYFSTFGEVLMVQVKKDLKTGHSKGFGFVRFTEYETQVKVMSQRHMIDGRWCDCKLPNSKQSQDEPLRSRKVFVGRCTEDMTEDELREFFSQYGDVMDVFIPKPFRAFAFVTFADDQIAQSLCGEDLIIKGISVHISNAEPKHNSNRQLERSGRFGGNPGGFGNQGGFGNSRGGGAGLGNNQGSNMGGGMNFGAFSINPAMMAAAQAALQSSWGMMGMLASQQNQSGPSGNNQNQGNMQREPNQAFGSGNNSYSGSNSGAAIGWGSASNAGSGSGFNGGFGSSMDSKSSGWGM

The target of data set [2] is T1, TDP-43-MBP (full-length wild-type …). Put plainly: EMSA; Kd,app only in figure; affinity similar to CE Ref; EMSA: 1 nM RNA, 50 mM Tris-HCl pH 7.5, 100 mM KCl, 2 mM MgCl2, 100 mM beta-mercaptoethanol, 0.1 mg/ml BSA, 30 min, room temperature; TDP-43 0-4 (printed mM in Methods, 0-8 uM in legend); 6% native PAGE, Cy5 imaging. The settings on record: protein: recombinant; tags: MBP; Ni-NTA purified; label: 5' Cy3 on strand 1; 3' Cy5 on 18-mer; 18 bp duplex at 3' end of strand 1, 5' ssRNA overhang 26 nt.

For data set [3] the target is unchanged. Put plainly: EMSA; Kd,app only in figure; much higher affinity than exon or repeat; EMSA: 1 nM RNA, 50 mM Tris-HCl pH 7.5, 100 mM KCl, 2 mM MgCl2, 100 mM beta-mercaptoethanol, 0.1 mg/ml BSA, 30 min, room temperature; TDP-43 0-4 (printed mM in Methods, 0-8 uM in legend); 6% native PAGE, Cy5 imaging. The settings on record: protein: recombinant; tags: MBP; Ni-NTA purified; label: 5' Cy3 on strand 1; 3' Cy5 on 18-mer; 18 bp duplex at 3' end of strand 1, 5' ssRNA overhang.

B1: CE Ref (G), rs12973192 (mixed)
RNA 1: AAGGAUGGAUGGAGAGAUGGGUGAGUGCCUCGCUGCCGUCGCCA
RNA 2: UGGCGACGGCAGCGAGGC
modifications: 5' biotin on 18-mer strand
As for B1, the binding result in data set [1] (18 bp duplex at 3' end of strand 1, 5' ssRNA overhang 26 nt) was “binds”.

B2: CE Risk (C), rs12973192 (mixed)
RNA 1: AAGCAUGGAUGGAGAGAUGGGUGAGUGCCUCGCUGCCGUCGCCA
RNA 2: UGGCGACGGCAGCGAGGC
modifications: 5' biotin on 18-mer strand
Take B2: the binding result in data set [2] is “binds”.

B3: Repeat Ref ((GATG)4), rs56041637 (mixed)
RNA 1: UGGAUGGAUGGAUGGAUGGAGCCUCGCUGCCGUCGCCA
RNA 2: UGGCGACGGCAGCGAGGC
modifications: 5' biotin on 18-mer strand
Consider B3, for which the binding result in data set [1] (18 bp duplex at 3' end of strand 1, 5' ssRNA overhang 20 nt) was “binds”.

B4: Intron Ref (U), rs12608932 (mixed)
RNA 1: AAUGGAUGGUUGGAUAAAUUGAUGGGUGGAUGGAUGCCUCGCUGCCGUCGCCA
RNA 2: UGGCGACGGCAGCGAGGC
modifications: 5' biotin on 18-mer strand
On to B4, for which, in data set [3], the binding result is listed as “binds”.
